B1: hIL-6Rα on hIL-6Rα-transfected HEK293T cells (receptor)
chain: LAPRRCPAQEVARGVLTSLPGDSVTLTCPGVEPEDNATVHWVLRKPAAGSHPSRWAGMGRRLLLRSVQLHDSGNYSCYRAGRPAGTVHLLVDVPPEEPQLSCFRKSPLSNVVCEWGPRSTPSLTTKAVLLVRKFQNSPAEDFQEPCQYSQESQKFSCQLAVPEGDSSFYIVSMCVASSVGSKFSKTQTFQGCGILQPDPPANITVTAVARNPRWLSVTWQDPHSWNSSFYRLRFELRYRAERSKTFTTWMVKDLQHHCVIHDAWSGLRHVVQLRAQEEFGQGEWSEWSPEAMGTPWTESRSPPAENEVSTPMQALTTNKDDDNILFRDSANATSLPVQDSSSVPLPTFLVAGGSLAFGTLLCIAIVLRFKKTWKLRALKEGKTSMHPPYSLGQLVPERPRPTPVLVPLISPPVSPSSLGSDNTSSHNRPDARDPRSPYDISNTDYFFPR
In the case of B1, the Kd (as a rule, the free concentration of one partner at which half of the binding sites on the other are occupied at equilibrium, for simple one-to-one binding) in the assay with NEF172 worked out at 10.9 nM; with NEF108, 5.3 nM; with NEF163 it was 3.5 nM.

These data come from paper PMC11075285 (2024).
